The values that follow come from patent US20220205015A1 (NANYANG TECHNOLOGICAL UNIVERSITY, published 2022).

Like-named read-outs stand apart in the source and are kept apart here. Where no end group is shown, it is not given here. Where only a bound is given, the exact number is not on record here.

Data set [1] concerns T1, LL37ARRA (CLLGDFARRAKEKIG).
T1 sequence: CLLGDFARRAKEKIG

For data set [2], the target named is T2, OmpT (omptin outer membrane protease of Escherichia coli), recombinant, reconstituted in detergent micelles (Escherichia coli, UniProt P09169 21-317).
T2 sequence: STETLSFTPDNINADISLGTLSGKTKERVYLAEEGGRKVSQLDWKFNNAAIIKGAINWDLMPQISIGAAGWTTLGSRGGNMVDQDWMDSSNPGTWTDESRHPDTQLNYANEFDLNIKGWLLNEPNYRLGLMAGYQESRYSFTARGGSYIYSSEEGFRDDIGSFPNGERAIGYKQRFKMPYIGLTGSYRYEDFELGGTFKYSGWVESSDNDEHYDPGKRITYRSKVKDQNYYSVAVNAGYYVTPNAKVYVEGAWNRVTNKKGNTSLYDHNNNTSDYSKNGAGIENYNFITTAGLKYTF
Kind of data set: cell-based or functional assay.

Data set [3] has as its target T3, LL37YRRA (CLLGDFYRRAKEKIG).
T3 chain: CLLGDFYRRAKEKIG

In data set [4] the target is T4, LL37FRRA (CLLGDFFRRAKEKIG).
T4 chain: CLLGDFFRRAKEKIG

Data set [5] has as its target T5, LL37ARRA (CLLGDFARRAKEKIG).
T5 chain: CLLGDFARRAKEKIG

The target in data set [6] is T6, LL37FRRV (CLLGDFFRRVKEKIG).
T6 chain: CLLGDFFRRVKEKIG

Data set [7] deals with T7, LL37FRRY (CLLGDFFRRYKEKIG).
T7 chain: CLLGDFFRRYKEKIG

As to “PgtE (omptin protease, present on pathogenic Salmonella typhi)”, in data set [1], the “proteolytic activity, measured as the change in PT6 fluorescence with time” value is given as “OmpT exhibits a higher preference for LL37ARRA (SEQ ID NO: 11) than does PgtE”.

Turning to CLLGDFFRRAKEKIG [LL37FRRA (CLLGDFFRRAKEKIG)], in data set [2], the “colour of PT6 under UV-A light after incubation with OmpT” value (shortened to “colour of PT6 under UV-A light”) was ≤ 10 min and the “incubation time with OmpT for an almost complete reduction in PT6 fluorescence” value is < 20 min.

In the case of CLLGDFYRRAKEKIG [LL37YRRA (CLLGDFYRRAKEKIG)], in data set [2], the “colour of PT6 under UV-A light” value was ≤ 10 min and the “incubation time with OmpT for an almost complete reduction in PT6 fluorescence” value was < 20 min.

CLLGDFFRRYKEKIG [LL37FRRY (CLLGDFFRRYKEKIG)]: in data set [2], the “colour of PT6 under UV-A light” value was ≤ 10 min and the “incubation time with OmpT for an almost complete reduction in PT6 fluorescence” value was < 20 min.

B1: OmpT (omptin outer membrane protease of Escherichia coli), recombinant, reconstituted in detergent micelles (protein)
chain: STETLSFTPDNINADISLGTLSGKTKERVYLAEEGGRKVSQLDWKFNNAAIIKGAINWDLMPQISIGAAGWTTLGSRGGNMVDQDWMDSSNPGTWTDESRHPDTQLNYANEFDLNIKGWLLNEPNYRLGLMAGYQESRYSFTARGGSYIYSSEEGFRDDIGSFPNGERAIGYKQRFKMPYIGLTGSYRYEDFELGGTFKYSGWVESSDNDEHYDPGKRITYRSKVKDQNYYSVAVNAGYYVTPNAKVYVEGAWNRVTNKKGNTSLYDHNNNTSDYSKNGAGIENYNFITTAGLKYTF
For the molecule B1, in data set [3], the “rate of cleavage by OmpT” value was “cleaved by the protease (OmpT) much more rapidly than the LL37FRRY peptide substrate used in Examples 1-5” and the “time to full cleavage by OmpT” value is “fully cleaved by OmpT in less than 20 min”. Further, in data set [4], the “rate of cleavage by OmpT” value is reported as “cleaved by the protease (OmpT) much more rapidly than the LL37FRRY peptide substrate used in Examples 1-5” and the “time to full cleavage by OmpT” value is listed as “fully cleaved by OmpT in less than 20 min”. Further, the “proteolytic activity, measured as the change in PT6 fluorescence with time” value in data set [5] is “OmpT exhibits a higher preference for LL37ARRA (SEQ ID NO: 11) than does PgtE”. In data set [6], the “SAMDI-MS screen of a peptide array for cleavage by omptin proteases” value was 400 times better then original peptide; the “cleavage, confirmed by MALDI-TOF” value is “it was cleaved at the dibasic site (-R8-R9-) to yield two short fragments of eight and seven residues”. The “rate of cleavage by OmpT” value in data set [7] is listed as “cleaved by the protease (OmpT) much more rapidly than the LL37FRRY peptide substrate used in Examples 1-5”.

Turning to CLLGDFFRRVKEKIG-NH2 [LL37FRRV (CLLGDFFRRVKEKIG)], in data set [2], the “incubation time with OmpT for an almost complete reduction in PT6 fluorescence” value is > 40 min.
